Assay results published in paper PMC8224366.

How the values were obtained:
[1] = target: EPN-Fos-C (EPN monomer with the Fos domain at the C-end; prokaryotic construct pET-EPN-Fos-C) (HIV | not stated)
[2] = target: EPN-Fos-M (EPN monomer with the Fos domain between the Interaction domain and the Late budding domain; prokaryotic construct pET-EPN-Fos-M) (not stated | HIV)
[3] = target: EPN-p6 (enveloped protein nanocage monomer with the p6 domain; prokaryotic construct pET-EPN-His-p6) (HIV)

| Substance | NanoLuc, molecules in a single nanocage, in EV C (estimated from luciferase assay and the EPN/NanoLuc molar ratio by MS/MS) (molecules in a single nanocage) [1] | NanoLuc, molecules in a single nanocage, in EV C(lenti) (estimated from luciferase assay and the EPN/NanoLuc molar ratio by MS/MS) (molecules in a single nanocage) [1] | NanoLuc, molecules in a single nanocage, in EV M (estimated from luciferase assay and the EPN/NanoLuc molar ratio by MS/MS) (molecules in a single nanocage) [2] | NanoLuc, molecules in a single nanocage, in EV p6 (estimated from luciferase assay and the EPN/NanoLuc molar ratio by MS/MS) (molecules in a single nanocage) [3] |
| --- | --- | --- | --- | --- |
| NanoLuc-Jun (NanoLuc luciferase fused with the Jun leucine zipper domain) | 15 | 40 | 21 |  |
| NanoLuc-Vpr (NanoLuc luciferase fused with HIV viral protein R) (from UniProt P69726 1-96) |  |  |  | 1.5 |
